Molecular target: T1, 重组人ATP5B (rhATP5B) (human, UniProt P06576 48-529)
T1 construct: mature; Mr about 55 000; also called rhATP5B蛋白; rhATP5B抗原; not shown: His-tag and vector-derived residues of pET28a(+) (insert cloned SacI/HindIII)
Assay: ELISA on culture supernatant of CHO-DG44 transfectants

T1 sequence (P06576 48-529): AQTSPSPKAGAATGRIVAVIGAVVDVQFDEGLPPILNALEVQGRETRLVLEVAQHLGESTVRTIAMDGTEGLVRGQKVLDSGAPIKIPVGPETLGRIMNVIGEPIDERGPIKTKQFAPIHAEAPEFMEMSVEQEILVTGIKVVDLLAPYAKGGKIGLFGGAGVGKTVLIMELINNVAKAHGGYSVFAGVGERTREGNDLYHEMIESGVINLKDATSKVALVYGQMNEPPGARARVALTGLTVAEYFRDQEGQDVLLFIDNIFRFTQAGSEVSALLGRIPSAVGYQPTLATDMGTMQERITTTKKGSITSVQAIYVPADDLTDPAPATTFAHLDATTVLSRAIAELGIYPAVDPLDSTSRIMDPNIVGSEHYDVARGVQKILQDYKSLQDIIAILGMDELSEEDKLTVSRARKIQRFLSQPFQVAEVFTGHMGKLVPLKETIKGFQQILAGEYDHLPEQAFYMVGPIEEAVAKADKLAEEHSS

- binding result: binds
B1: 抗ATP5B人鼠嵌合抗体c7A8 (antibody, human IgG1, kappa, V domains shown)
VH: EVQLLESGAELVKPGASVKLSCTASGFNIKDAYMYWVRQRPEQGLEWIGRIDPANDNTKYDPKFQGRATITADTSSNTAYLQLSSLTSEDTAVHYCARFYSVYAMDYWGQGTSVTVSS
VL: TQSPAIMSASPGEKVTITCSASSSVSYMHWFQQQPGTSPKLWVYTTSNLAFGVPARFSGSGPGTSYSLTISRMEAEDAATYYCQQRSSYPLTFGAGTKLELTR
notes: Chimeric IgG1/kappa: signal peptide and variable region of m7A8 joined to human IgG1 constant regions; tested as culture supernatant of transfected CHO-DG44 clone E1; also called 血管抑素受体β亚基人源化嵌合抗体; 人源化嵌合抗体
